Where a chain is given by its changes, count along the chain named. Names may count otherwise.
T1: cyclo(CGHHQKG) (SEQ ID NO: 12) conjugated to BSA (also: conjugated to BSA)
T1 construct: Synthetic cyclic peptide (CPC Scientific) holding HHQK of A-beta; also called Cyclic Peptide; cyclopeptide
T1 peptide: cyclo(CGHHQKG)

B1: 301-11 (antibody, V domains shown)
VH: EVQLVESGGGLVKPGGSLKLSCAASGFTFSDYYMYWVRQTPEKRLEWVATISDGGSYTSYPDSVKGRFTISRDNAKNNLYLQMSSLRSEDTAMYYCARDYYGSSSYTSGFAYWGQGTLVTVSA
VL: DIVMSQSPSSLAVSTGEKVTMSCKSSQSLLNSRTRKNYLAWYQQKPGQSPKLLIYWASTRESGVPDRFTGSGSGTDFTLTISSVQAEDLAVYYCKQSYNLYTFGGGTKLEIK
notes: Mouse monoclonal from hybridoma, IgG3 / kappa, raised against cyclo(CGHHQKG)-KLH
B2: 301-17 (hybridoma-purified 301-17 IgG3) (antibody, V domains shown)
VH: QVQLQQPGAELVKPGASVKMSCKASGYSFTSYWINWVKQRPGQGLEWIGDVHPGRGVSTYNAKFKSKATLTLDTSSSTAYMQLSSLTSEDSAVYYCSRSHGNTYWFFDVWGAGTTVTVSSATTTAPS
VL: DVLMTQTPLSLPVSLGDQASISCRSSQSIVHSNGNTYLEWYLQKPGQSPKLLIYKVSNRFSGVPDRFSGSGSGTDFTLKISRVEAEDLGVYYCFQGSHVPFTFGSGTKLEIKRADA
notes: Mouse monoclonal from hybridoma, IgG3 / kappa; also called mu301-17
B3: 301-17 chimeric antibody (VH0 Vk0, human IgG4) (antibody, V domains shown)
VH: QVQLQQPGAELVKPGASVKMSCKASGYSFTSYWINWVKQRPGQGLEWIGDVHPGRGVSTYNAKFKSKATLTLDTSSSTAYMQLSSLTSEDSAVYYCSRSHGNTYWFFDVWGAGTTVTVSS
VL: DVLMTQTPLSLPVSLGDQASISCRSSQSIVHSNGNTYLEWYLQKPGQSPKLLIYKVSNRFSGVPDRFSGSGSGTDFTLKISRVEAEDLGVYYCFQGSHVPFTFGSGTKLEIK
notes: expressed in CHO cells; not expressly tied to the chimeric one; also called V0H0 and V0k0
B4: Recombinant 301-17 IgG2a (antibody)
heavy: QVQLQQPGAELVKPGASVKMSCKASGYSFTSYWINWVKQRPGQGLEWIGDVHPGRGVSTYNAKFKSKATLTLDTSSSTAYMQLSSLTSEDSAVYYCSRSHGNTYWFFDVWGAGTTVTVSSAKTTAPSVYPLAPVCGDTTGSSVTLGCLVKGYFPEPVTLTWNSGSLSSGVHTFPAVLQSDLYTLSSSVTVTSSTWPSQSITCNVAHPASSTKVDKKIEPRGPTIKPCPPCKCPAPNLLGGPSVFIFPPKIKDVLMISLSPIVTCVVVDVSEDDPDVQISWFVNNVEVHTAQTQTHREDYNSTLRVVSALPIQHQDWMSGKEFKCKVNNKDLPAPIERTISKPKGSVRAPQVYVLPPPEEEMTKKQVTLTCMVTDFMPEDIYVEWTNNGKTELNYKNTEPVLDSDGSYFMYSKLRVEKKNWVERNSYSCSVVHEGLHNHHTTKSFSRTPGK
light: DVLMTQTPLSLPVSLGDQASISCRSSQSIVHSNGNTYLEWYLQKPGQSPKLLIYKVSNRFSGVPDRFSGSGSGTDFTLKISRVEAEDLGVYYCFQGSHVPFTFGSGTKLEIKRADAAPTVSIFPPSSEQLTSGGASVVCFLNNFYPKDINVKWKIDGSERQNGVLNSWTDQDSKDSTYSMSSTLTLTKDEYERHNSYTCEATHKTSTSPIVKSFNRNEC
B5: Humanized antibody of 301-17 (VH2 Vk5), IgG4 isotype (S241P hinge mutation) (antibody, V domains shown)
VH: B3 VH with Q5V, P7S, L11V, V12K, K67R, S76I, Q82E, T87R, S91T, A112Q
VL: DVLMTQSPLSLPVTLGQPASISCRSSQSIVHSNGNTYLEWYQQRPGQSPRLLIYKVSNRFSGVPDRFSGSGSGTDFTLKISRVEAEDVGVYYCFQGSHVPFTFGQGTKLEIKR
notes: also called hu301-17

Legend:
A-beta42 Monomer = biological target: T2, A-beta42 Monomer (human); assay: SPR; purified antibody immobilized, A-beta preparation flowed over
T2 construct: Recombinant A-beta42 peptide (California Peptide), HFIP-treated, in DMSO then water, used at once; also called Ab42 Monomer; A-beta 1-42 monomer
T2 sequence (peptide, as listed by the source): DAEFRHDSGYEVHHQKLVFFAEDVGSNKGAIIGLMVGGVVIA

[1] = biological target: T3, A-beta42 Oligomer (synthetic, prepared in F12 medium) (human); assay: as above
T3 construct: Non-covalent oligomer of recombinant A-beta42 (California Peptide), 100 µM in F12 medium, 24 h to 7 days at 4 °C; also called Ab42 Oligomer; A-beta 1-42 oligomers
T3 sequence (peptide, as listed by the source): as above

[2] = biological target: T1, cyclo(CGHHQKG) (SEQ ID NO: 12) …; assay: single cycle Biacore analysis
Method: The fully humanized antibodies were prepared using Composite Human Antibody™ technology. The humanized variable region genes were cloned into vectors encoding a human IgG4 (S241P hinge variant) heavy chain constant domain and a human kappa light chain constant domain. Chimeric and humanized antibodies were transiently expressed in CHO cells and Protein A purified and tested.
Binding was determined using single cycle Biacore analysis. Antibodies were analysed in two separate experiments.

[3] = biological target: T4, commercially-prepared stable A-beta42 Oligomers (SynAging SAS) (human); assay: ProteOn biosensor; antibody captured or amine-coupled on GLM chip, AbO dilutions 1 uM to 12.3 nM
T4 construct: Bought oligomer preparation; also called AbO (SynAging); SynAging AbO
T4 sequence (peptide, as listed by the source): as above
Method: AbO 3 fold-dilutions were used: 1 uM, 0.33 uM, 0.11 uM, 37 nM, 12.3 nM. Assay buffer was PBS-E+Tween 20+2 mg/ml BSA.

[4] = biological target: T1, cyclo(CGHHQKG) (SEQ ID NO: 12) …; assay: ProteOn biosensor; antibody amine-coupled to GLH chip, Cyclo-BSA dilutions 9 nM to 111 pM
Method: Cyclo-BSA 3-fold dilutions were used from 9 nM to 111 pM. Assay buffer was PBS-E+0.05% Tween+10 mg/ml BSA.

[5] = biological target: T1, cyclo(CGHHQKG) (SEQ ID NO: 12) …; assay: SPR; immobilized antibody pre-exposed to cyclic peptide

| Binder | binding response (RU) (A-beta42 Monomer) | binding response (RU) [1] [RU] | Kd [2] [nM] | Kd [3] [nM] | also measured |
| --- | --- | --- | --- | --- | --- |
| B1 | -14.1 | -2.8 |  |  |  |
| B2 | -27.1 | 148 | 0.4 | ~26.9 |  |
| B3 |  |  | ~0.02 |  |  |
| B4 |  |  |  | 16.2 to 19.5 | Kd [4]: ~0.017 nM |
| B5 |  |  |  |  | binding result [5]: binds |
